This note sets out measurements from US20240026407A1, “MODIFICATION OF SAPONINS” (GLAXOSMITHKLINE BIOLOGICALS SA, priority 2020, published 2024).

Type in all cases: biochemical, Quillaja saponaria
Assay [1] can be described thus: Experiment 5-1: screening of additional glucosidases for deglycosylation with purified QS-18 (0.04 mg/ml) at pH 7.5 and 30 deg C. The settings on record: pH 7.5, 30 degrees C, 18 hours, LCMS/MS. The protocol: The 94 additional genes, together with positive control (DNA encoding SEQ ID No. 262) and negative control, were transformed, expressed, lysed and reacted in the same manner as described above for Experiment 4-1, except the reaction was incubated at 30 degrees C. for 18 hours.
Samples were analysed by LCMS/MS according to the procedure in Experiment 4-1.

Assay [2] is described as follows: Experiment 5-2: screening of additional glucosidases for deglycosylation with QS-18 in crude bark extract (80%) at pH 6 and 35 deg C. The settings on record: CBE 80%, pH 6, 35 deg C, 18 hours; UV HPLC. The method, boiled down:
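Clarified glucosidase lysate (prepared at pH 6) was incubated with pH 6-adjusted crude bark extract at 35 deg C with shaking for 18 hours. Reactions were quenched with MeCN containing 2% AcOH and hexanophenone, then analysed by UV HPLC.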

Assay [3] is described as follows: Experiment 5-3: screening of additional glucosidases for deglycosylation with QS-18 in treated bark extract (80%) at pH 6 and 35 deg C. To be noted: TBE 80% (QS-21 approx. 4 g/L), pH 6, 35 deg C; UV HPLC. The protocol: Experiment 5-1 was repeated, replacing CBE with Treated Bark Extract (TBE) at pH 6. TBE was prepared from CBE by PVPP treatment and concentration, to provide TBE with a QS-21 concentration of approximately 4 g/L. TBE was adjusted to pH 6 by dropwise addition of 2M NaOH with stirring.

B1: 885 (protein, listed as Bifidobacterium indicum)
chain: MTTDKHLQAKDLDIEKEASLTSGSDAWHLQGVPDQGYPEYMITDGPYGLRKATGSDVYGSVPATCFPPTAGLASSWNPDLTYQVGQAMGEECIQEEVAVILGPGINIKRSPLGGRNFEYYSEDPVLAGHQAAGLVDGVQSKGVGTSLKHFAANNQETDRLRVSSDIDERTLREIYLPAFEYVVKHAKPWTIMCAYNKLNGVYGSENRWLLTDVLRGEWGYQGLVMSDWGAVHDRAAALRAGLNLEMPPSASDHEVVEAVRAGNLDKDQLDRMAQGVLDLIEKAKPAMSQKGYRYDVEAHDQVARQAAQESIVMLKNEDGVLPLAPGEKVALIGEFARTPRYQGGGSSHITPTKVTTALDSFKETGMDVDFVPGFTLDEAPQDQSLTDQAVKAAADADKVVLFLGLPEDAESEGFDRTDIDLPTKQLDLLRAVSQVNDQVVVVLSNGSVVSVVDWLPQAKAVLESWLLGQAGGQAVVDILTGGANPSGRLPETIPVRLEDNPSITSFPGEEGHSRYGEGIYVGYRYYDTFNKPVAFPFGFGLSYSTFEISNVRVEKTGPNAVRVDLTVTNTSGIDGAETVQVYVAPCASKVGRPSHELKSFAKVFLKAGESQEISLDLDERDFAYWSTAMNEWHVEAGTYGIEVGTSSRDLVSKLDVDLDGDGLFVRLNSNSTMEEWREDQVGGPIMKSHVEGGKVPLPNDPNTAKLFDSMPLASVITLSGGDGNSVVADMITDYQKAIEQQGLTGASRGSE
For the molecule B1, in assay [1], the “Experiment 5-1 % conv” value came out at 54.8%. For the same molecule, the “Experiment 5-2 % conv” value in assay [2] was less than 0.5%. The “Experiment 5-3 % conv” value in assay [3] was less than 0.5%.

B2: 808 (protein, listed as Microbacterium lemovicicum)
chain: MTTESTVATSDATSHLLPLLAQLTLAQKAAFVQGADFWATVPLPEIGVRSMTLSDGPAGVRGPRWDEREPSLNLPSGSALAASWDIDLAYRYGAAAASEARRKGVDVVLGPTINLHRSPLGGRHFECFSEDPELTAELGAAYVRGLQDNGVAATPKHYVANDSETDRFTVDVRVDERALRELYLAPFERAVEAGTWSVMSAYNSVDGVTMTENDLLETPLNSEWGFDGVVVSDWTAVRSLDAVAASQDLAMPGPAPAWADLVAAVEDGRVSEADLDRKVLRMLLLAERVGALEGAPGIEPAPVDGVAFTREAAVEGTVLLTNDGTLPLDAAALRSVAVIGHNALEARTQGGGSATVLPEHVVSPLEGLRTALPDAAVSYEIGAVVQEGVAELPLEQLQNTVTGEPGLRVSFFDADGLELFTEDRRSTALVWFGGDAPIAASSSVVLETVYTPAETGEIQLGFAGANPGRVSIDGVEVLAETPLIEGTDLGAAFLNPPSSTAAVRAEAGRPLRLRAEFALSSGGPLAGALSVTLGIAPETTDPDELIARAAAAAASADVAVVVVGTNSKVESEGYDRVDLDLPGRQDDLVRAVAATGTPTIVVVNAGSPVVLPWAGEVAAVVQGYFGGQEFGSAVAAVLTGAAEPGGRLPTTWPAALADVPVTDVAPQDGVLAYTEGIHIGYRAWLRADAAPAFPFGHGLGYTTWSWGAVQRDGDALDVTLANTGARAGKQVVQVYAERADSTVERPVRWLVGFATVRAEAGQTVTATIPLPARRFAHWSDGWQVEGGAFTLRAGASVADLPLTMEWSIGD
For the molecule B2, in assay [1], the “Experiment 5-1 % conv” value is given as 52.0%. Further, the “Experiment 5-2 % conv” value in assay [2] is reported as less than 0.5%. In addition, the “Experiment 5-3 % conv” value in assay [3] is reported as less than 0.5%.

B3: 838 (protein)
chain: MSEHTYPSVKDLTLEEKASLTSGGDAWHLQGVEAKGIPGYMITDGPHGLRKSLATSTGETDLDDSVPATCFPPAAGLSSSWNPSLVRKVGEAMGEECIQEKVAVILGPGVNIKRNPLGGRCFEYWSEDPYLAGHEAVGIVEGVQSKGVGTSLKHFAVNNQETDRLRVDARVSQRALREIYLPAFEHIVKTAQPWTIMCSYNRVNGVHSAQNRWLLTDVLRDEWGFKGIVMSDWGADHDRVASVNAGLNLEMPPSGTDDEIVYAARDGRIDPAQLDRMAQGMIDLTDKARAAMSIDGYRFDVDAHDEVAHQAAVESMVLLKNEDAILPLKKDAKIAVIGEFARTPRYQGGGSSHITPTKMTSFLDTLAERGIKADFAPGFTLDLDPADSALELEAVETARDADVALLFLGLPEAAESEGFDRETLDMPAKQIELLAKVAAVNPNVAVVLSNGSVVSVAPWAGNAKGILESWLLGQAGGPALADVIFGEASPSGKLAQSIPLDINDDPSMLNWPGEEGHVDYGEGVFVGYRYYDTYDVAVDYPFGYGLSYASFEISDVHAEKTGANTASVTATVANVSDVDGAETVQVYVAPGKAEVARPSHELKGFAKVFLKAGESKTVTFDLDGRAFAYWSEKYGDWHIEAGAYGIEVGTSSRDIAATATVELEGDGKSLPLDEWSTYGEWEADPVGARVVAAVEAAGESGTLPKLPDNTMMRIFLKSMPINSMPMLMSDGGRRITAFMLDEYAKLTK
modifications: Bifidobacterium stellenboschense
For B3, in assay [1], the “Experiment 5-1 % conv” value was 53.4%. In assay [2], the “Experiment 5-2 % conv” value is recorded as less than 0.5%. Besides, the “Experiment 5-3 % conv” value in assay [3] is listed as less than 0.5%.

B4: 828 (protein, listed as Bifidobacterium pseudocatenulatum)
chain: MSEKTYPSINDLTLEEKASLTSGGDAWHLQGVEAKGIPGYMITDGPHGLRKSNSATTGEVDLNNCVPATCFPPAAGLSSSWNPELIHQVGEAMAEECIQEKVAVILGPGVNIKRNPLGGRCFEYWSEDPYLAGHEAIGIVAGVQSKGVGTSLKHFAANNQETDRLRISANISQRALREIYFPAFEHIVKEAQPWTIMCAYNCINGVHAAQDHWLLTDVLRDEWGFQGIVMSDWGADHDRVASLNAGLNLEMPPSYTDDQIVYAARDGRIQPAQLDHMAQGMIDLVNKTRAAMSIENYRFDIEAHDEVAHQAAIESMVLLKNDDAILPIAGDAKVTVIGEFARTPRYQGGGSSHITPTKMTSFLDTLTERGVDAKFAPGFTLDLEPADPALEAEAVDAAKGADVVLMFLGLPEAAESEGFDRETLDMPAKQIALLEAVAAENKNVVVVLSNGSVVTVAPWAKNAKGILESWLLGQSGGPALADVLFGKVSPSGKLAQTIPFDINDDPSTINWPGEEGHVDYGEGVFVGYRYYDTYNKAVDYPFGFGLSYATFEVSDVKAVKTGACTASVSAVVKNTSNVDAAETVQVYVAPGKADVVRPKHELKGFKKVFLKAGESAEVSFELDDRAFAYWSERFNDWHVESGEYTIEVGTSSRDIAGSAVVELDGDGKAQPLTEWSNFMEWRKDPLGSKVLEILRAEGEAGRMPVVPDNDMTRLFLDSMPINSMSVLMGADGKQIFEYMLEKYAELTK
For B4, the “Experiment 5-1 % conv” value in assay [1] is listed as 50.7%. Moreover, the “Experiment 5-2 % conv” value in assay [2] was less than 0.5%. In addition, the “Experiment 5-3 % conv” value in assay [3] is recorded as less than 0.5%.

B5: 870 (protein)
chain: MTEQTHTKAKDLDLQEEASLTSGSDSWHLQGLPDKGYEGYMITDGPYGLRKATGSDVYGSVPATCFPPTAGLASSWNPDLTYQVGQAMGEECIQEKVAVILGPGINIKRSPLGGRNFEFYSEDPVLAGHEAAGLVEGVQSKGVGTSLKHFAANNQETDRLRVSSDVDVRTLREIYLPAFEYVVKNAKPWTIMCAYNKVNGVFSSENRWLLTDVLRGEWGYQGMVMSDWGAVHNRVDALQAGLNLEMPPSRTDDQVVQAVQAGKLDKEQLDRMAQGILDLIDKARPAMSQQGYRYDVQEHNDMARRAAQESIVLLRNEDRILPLDPQKKVAVIGEFARTPRYQGGGSSHITPTEVSSALDGFKEAGMNVDFAPGFTLDEKEQDPALTRQALEVARGADTVVLFLGLPEYAESEGFDRTSMDLPEKQVALLKAVSEVNDRVVAVLSNGAVVTVADWMDKTKGLLETWLLGQEGGRAVVDVLTGAATPSGHLPETIPVRLEDNPTITSFPGEEGHSRYGEGVYVGYRYYDTFQRPVAFPFGFGLSYADFALDQVAVTKTGASSARVEVTVTNTSQVDGAQTVQVYVAPCASRVNRPSHELKAFTKVFLKAGQSSRVSMDLTERDFAYWSTAMDAWHVEAGTYRIQVGTSSRDLVAEEDLQVDGDGRFIPLNAESTMAEWRENSIGGPIMRDRIDQDGIPLPDDPNTAQLFDTMPLASVITLSGGDGNGIVADMVDRYHQALKQQGRDS
modifications: Bifidobacterium asteroides
For the molecule B5, in assay [1], the “Experiment 5-1 % conv” value is listed as 49.7%. For the same molecule, in assay [2], the “Experiment 5-2 % conv” value was less than 0.5%. In addition, the “Experiment 5-3 % conv” value in assay [3] is less than 0.5%.

B6: 829 (protein, listed as Pseudonocardia sp.)
chain: MATVDEDLLTTLIARLDLDAKVRLLTGADFWSTPAEPAIGLRRMVLSDGPSGVRGESFDERSPSLSLPSSTALGATWDPELARRYGSTLGAEARRQHADVVLGPTINLHRTPFGGRHFEALSEDPLLTGELAAAYVEGLQAHGVAATPKHYVANDAESERFTVDNVVGERALHELYLAAFEPAVTRGGAWAVMSAYNAVNGATMSENPLLTEPLTGEWGFDGLVMSDWGAVRTTVASARAEQHLVMPGPVSTWGERLVAAVRGGEVDESVVDGKLRRLLRLAARVGALDGGPTPPPAPAPGDGATVARELAAAGSVLVRNTGELPWDASALGTVAVLGHNAALARTQGGGSATVRPAAVVAPLDGLRTALGGDRVRYRLGAQVAEGVQPFDPETVTDPVTGEPGLRAVFRAADGTALRSEHRLGASLIWMSGEIPGGAETVEVSTRWSPEPGAHRIGAAAVGHVTVSADGATVLDTEAVLTGDEGPGAAIFEAPSATAEITTDAPVDLVFRFRPSGGEAGMALFALTVGTETVVADPRAEVAAAASLAADCDVAVVVVGTNDRIESEGFDRTSLALPGHQDDLVRAVAAANPRTVVVVNSGAPVLLPWRDEVAAVLLGWFGGERFGDAVADVLLGHAEPGGRLPTTWPATGEERSVLSGRPTDGVLRYDEGVHLGHRNWLRHGETPAYPFGHGLGYTTWTLDDAVAGPWSADGVAVTVTLTNTGDRAGRQVVQAYLSRTGSDVERPARWLAGWAVVDAAPGTTTATVTVSRRAFRHRAGGVWATEPGTYELHLGFSVADTPLHATVEVVGEG
For the molecule B6, in assay [1], the “Experiment 5-1 % conv” value is listed as 52.3%. The “Experiment 5-2 % conv” value in assay [2] was less than 0.5%. Also, in assay [3], the “Experiment 5-3 % conv” value is less than 0.5%.
